Columns and labels:
[1] = target: human B-type natriuretic peptide (human); experiment: two-step sandwich chemiluminescent immunoassay ([..]); capture 8.1 on microparticles, acridinium-labeled 15C4; BNP at 43.8 pM
[2] = target: human B-type natriuretic peptide (human); experiment: two-step sandwich chemiluminescent immunoassay ([..]); capture 8.1 on microparticles, acridinium-labeled 15C4; BNP at 86.6 pM
[3] = target: human B-type natriuretic peptide (human); experiment: two-step sandwich chemiluminescent immunoassay ([..]); capture 8.1 on microparticles, acridinium-labeled 15C4; BNP at 288.7 pM
[4] = target: human B-type natriuretic peptide (human); experiment: two-step sandwich chemiluminescent immunoassay ([..]); capture 8.1 on microparticles, acridinium-labeled 15C4; BNP at 577.4 pM
[5] = target: human B-type natriuretic peptide (human); experiment: two-step sandwich chemiluminescent immunoassay ([..]); capture 15F11 on microparticles, acridinium-labeled 15C4; BNP at 43.8 pM
[6] = target: human B-type natriuretic peptide (human); experiment: two-step sandwich chemiluminescent immunoassay ([..]); capture 15F11 on microparticles, acridinium-labeled 15C4; BNP at 86.6 pM
[7] = target: human B-type natriuretic peptide (human); experiment: two-step sandwich chemiluminescent immunoassay ([..]); capture 15F11 on microparticles, acridinium-labeled 15C4; BNP at 288.7 pM
[8] = target: human B-type natriuretic peptide (human); experiment: two-step sandwich chemiluminescent immunoassay ([..]); capture 15F11 on microparticles, acridinium-labeled 15C4; BNP at 577.4 pM
[9] = target: human pro B-type natriuretic peptide (human); experiment: two-step sandwich chemiluminescent immunoassay ([..]); capture 8.1 on microparticles, acridinium-labeled 15C4; proBNP at 43.8 pM
Sequence of human pro B-type natriuretic peptide (human) (chain, as listed by the source): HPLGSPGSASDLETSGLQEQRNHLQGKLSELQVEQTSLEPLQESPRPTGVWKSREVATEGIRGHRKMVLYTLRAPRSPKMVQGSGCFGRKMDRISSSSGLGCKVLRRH

[10] = target: human pro B-type natriuretic peptide (human); experiment: two-step sandwich chemiluminescent immunoassay ([..]); capture 8.1 on microparticles, acridinium-labeled 15C4; proBNP at 86.6 pM
[11] = target: human pro B-type natriuretic peptide (human); experiment: two-step sandwich chemiluminescent immunoassay ([..]); capture 8.1 on microparticles, acridinium-labeled 15C4; proBNP at 288.7 pM
[12] = target: human pro B-type natriuretic peptide (human); experiment: two-step sandwich chemiluminescent immunoassay ([..]); capture 8.1 on microparticles, acridinium-labeled 15C4; proBNP at 577.4 pM
[13] = target: human B-type natriuretic peptide (human); experiment: two-step sandwich chemiluminescent immunoassay ([..]); capture 8.1 on microparticles, acridinium-labeled 15C4; BNP at 0 pM (blank)
[14] = target: human B-type natriuretic peptide (human); experiment: two-step sandwich chemiluminescent immunoassay ([..]); capture 15F11 on microparticles, acridinium-labeled 15C4; BNP at 0 pM (blank)
[15] = target: human N-terminal-pro B-type natriuretic peptide (human); experiment: two-step sandwich chemiluminescent immunoassay ([..]); capture 15F11 on microparticles, acridinium-labeled 15C4; NT-proBNP at 43.8 pM
Sequence of human N-terminal-pro B-type natriuretic peptide (human) (chain, as listed by the source): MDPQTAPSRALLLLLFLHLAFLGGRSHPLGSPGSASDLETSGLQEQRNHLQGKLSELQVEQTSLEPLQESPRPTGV

[16] = target: human N-terminal-pro B-type natriuretic peptide (human); experiment: two-step sandwich chemiluminescent immunoassay ([..]); capture 15F11 on microparticles, acridinium-labeled 15C4; NT-proBNP at 86.6 pM
[17] = target: human pro B-type natriuretic peptide (human); experiment: two-step sandwich chemiluminescent immunoassay ([..]); capture 8.1 on microparticles, acridinium-labeled 15C4; proBNP at 0 pM (blank)
[18] = target: human N-terminal-pro B-type natriuretic peptide (human); experiment: two-step sandwich chemiluminescent immunoassay ([..]); capture 15F11 on microparticles, acridinium-labeled 15C4; NT-proBNP at 288.7 pM
[19] = target: human N-terminal-pro B-type natriuretic peptide (human); experiment: two-step sandwich chemiluminescent immunoassay ([..]); capture 15F11 on microparticles, acridinium-labeled 15C4; NT-proBNP at 577.4 pM
[20] = target: human N-terminal-pro B-type natriuretic peptide (human); experiment: two-step sandwich chemiluminescent immunoassay ([..]); capture 15F11 on microparticles, acridinium-labeled 15C4; NT-proBNP at 0 pM (blank)

Sequence of human B-type natriuretic peptide (human) (peptide, as listed by the source): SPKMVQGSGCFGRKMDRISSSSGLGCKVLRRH

mean rlus [1]: 567 RLU
mean rlus [2]: 713 RLU
mean rlus [3]: 732 RLU
mean rlus [4]: 701 RLU
mean rlus [5]: 1040 RLU
mean rlus [6]: 1080 RLU
mean rlus [7]: 1130 RLU
mean rlus [8]: 1140 RLU
mean rlus [9]: 5480 RLU
mean rlus [10]: 12000 RLU
mean rlus [11]: 43000 RLU
mean rlus [12]: 116000 RLU
mean rlus [13]: 745 RLU
mean rlus [14]: 1200 RLU
mean rlus [15]: 22400 RLU
mean rlus [16]: 62700 RLU
mean rlus [17]: 659 RLU
mean rlus [18]: 317000 RLU
mean rlus [19]: 658000 RLU
mean rlus [20]: 1140 RLU
Substance: monoclonal antibody 15C4

Source: patent US20110124012A1
